Where a chain is given by its changes, count along the chain named. One block for each binder: values may come before it.
Assays:
[1] = target: T1, human integrin αvβ6 on cells (human, UniProt P06756 31-1048; P18564 22-788); test: cell-based or functional assay
[2] = target: T2, rat integrin αvβ6 on NBT-II bladder carcinoma cells (rat, UniProt F1LZX9 31-1043; Q6AYF4 22-787); test: saturation binding of biotinylated antibody, flow cytometry on rat NBT-II cells (apparent Kd)
T2 construct: whole, on cells; Endogenous αvβ6 of rat NBT-II cells; also called rat αvβ6; rat NBT-II
Method: (§1) 0.25-0.5×10⁶ antigen expressing cells were aliquoted per well into a 96-well v-bottom plate. m15H3, h15H3 (HBLC) and h15H3 (HTLC) were directly labeled with equivalent levels of biotin and added to cells at concentrations ranging from 0.1 pM-150 nM. Cells were incubated on ice for 30 minutes, washed three times in FACS buffer (PBS, 2% fetal bovine serum, 1 mM MgCl₂, 1 mM CaCl₂, 0.02% NaN₃), incubated on ice for 45 minutes with PE conjugated streptavidin (0.5 ug/ml) in FACS buffer, washed three times and resuspended in FACS buffer. Binding was detected using a Becton Dickinson Biosciences FACSCalibur (San Jose, Calif.). The apparent Kd was calculated using GraphPad Software (LaJolla, Calif.).
The KD for the murine αvβ6 monoclonal antibody 15H3 antibody and select humanized version thereof was determined for human, cyno, rat, and mouse. […] The genetically engineered cell lines express endogenous αv which pairs with the recombinant β6 chain to produce a heterodimeric receptor composed of endogenous αv and recombinant β6. The affinity for rat αvβ6 was determined using rat NBT-II bladder carcinoma cells, which expression endogenous αvβ6.

[3] = target: T3, cynomolgus integrin αvβ6 on 293F:cynoβ6 cells (human; cynomolgus, UniProt P06756 31-1048; A0A2K5TZ36 22-787); test: saturation binding of biotinylated antibody, flow cytometry on 293F:cynoβ6 cells (apparent Kd)
T3 construct: whole, on cells; also called HEK293F:cynoβ6
Method: as §1

[4] = target: T4, recombinant αvβ3 (human, UniProt P06756 31-992; P05106 27-718); test: ELISA, integrin coated at 1 ug/ml, biotinylated antibody
T4 construct: Bought from R&D Systems; species read from 'recombinant human αvβ6, αvβ3 and αvβ8'
Method: (§2) 96-well Maxisorb plates (Nunc) were coated overnight at 4° C. with 1 ug/ml of recombinant human αvβ6, αvβ3 and αvβ8 diluted in PBS. Plates were washed in PBS with 0.05% Tween 20 (PBS-T). Wash buffer was removed and plates were blocked for 30 minutes at room temperature in TBS blocking buffer (TBS plus 1 mM MnCl₂, 0.05% Tween 20, 1% BSA). Plates were washed and then incubated for 1 hour with biotinylated antibody (m15H3 or h15H3) diluted in TBS blocking buffer at concentrations that ranged from 4.6 ng/m1-10 ug/ml. Plates were washed, incubated for 1 hour with 1 ug/ml of HRP-streptavidin, washed, and then incubated with TMB substrate for 10 minutes. The reaction was stopped with 1 M H₂SO₄. Absorbance at 450 nm was read using a Fusion HT plate reader (Perkin Elmer, Waltham, Mass.).
(§3) BALB/c mice were immunized three times with intraperitoneal injections of ˜5×10⁶ 3 T3:huβ6 transfectants. Three days prior to fusion, mice received a final injection of purified recombinant human αvβ6 that was given intravenously (6 ug) and intraperitoneally (30 ug). Lymphocytes harvested from spleen and lymph nodes were fused to P3X63Ag8.653 myeloma cells using polyethylene glycol. Fused cells were recovered overnight in hybridoma growth media (IMDM containing 4 mM glutamine, 10% Fetal Clone I, 10% Cloning Factor and Penicillin/Streptomycin). […] The plates were read in an FMAT 8200 (Applied Biosystems).

[5] = target: T5, recombinant αvβ8 (human, UniProt P06756 31-992; P26012 43-684); test: as above
T5 construct: Bought from R&D Systems; species read from 'recombinant human αvβ6, αvβ3 and αvβ8'
Method: as §2, §3

[6] = target: T6, mouse integrin αvβ6 on FDC-P1:muβ6 cells (mouse, UniProt P43406 31-1044; Q9Z0T9 22-787); test: saturation binding of biotinylated antibody, flow cytometry on FDC-P1:muβ6 cells (apparent Kd)
T6 construct: whole, on cells; Heterodimer of endogenous mouse αv and recombinant mouse β6
T6 sequence (P43406 31-1044, chain 1 of 2): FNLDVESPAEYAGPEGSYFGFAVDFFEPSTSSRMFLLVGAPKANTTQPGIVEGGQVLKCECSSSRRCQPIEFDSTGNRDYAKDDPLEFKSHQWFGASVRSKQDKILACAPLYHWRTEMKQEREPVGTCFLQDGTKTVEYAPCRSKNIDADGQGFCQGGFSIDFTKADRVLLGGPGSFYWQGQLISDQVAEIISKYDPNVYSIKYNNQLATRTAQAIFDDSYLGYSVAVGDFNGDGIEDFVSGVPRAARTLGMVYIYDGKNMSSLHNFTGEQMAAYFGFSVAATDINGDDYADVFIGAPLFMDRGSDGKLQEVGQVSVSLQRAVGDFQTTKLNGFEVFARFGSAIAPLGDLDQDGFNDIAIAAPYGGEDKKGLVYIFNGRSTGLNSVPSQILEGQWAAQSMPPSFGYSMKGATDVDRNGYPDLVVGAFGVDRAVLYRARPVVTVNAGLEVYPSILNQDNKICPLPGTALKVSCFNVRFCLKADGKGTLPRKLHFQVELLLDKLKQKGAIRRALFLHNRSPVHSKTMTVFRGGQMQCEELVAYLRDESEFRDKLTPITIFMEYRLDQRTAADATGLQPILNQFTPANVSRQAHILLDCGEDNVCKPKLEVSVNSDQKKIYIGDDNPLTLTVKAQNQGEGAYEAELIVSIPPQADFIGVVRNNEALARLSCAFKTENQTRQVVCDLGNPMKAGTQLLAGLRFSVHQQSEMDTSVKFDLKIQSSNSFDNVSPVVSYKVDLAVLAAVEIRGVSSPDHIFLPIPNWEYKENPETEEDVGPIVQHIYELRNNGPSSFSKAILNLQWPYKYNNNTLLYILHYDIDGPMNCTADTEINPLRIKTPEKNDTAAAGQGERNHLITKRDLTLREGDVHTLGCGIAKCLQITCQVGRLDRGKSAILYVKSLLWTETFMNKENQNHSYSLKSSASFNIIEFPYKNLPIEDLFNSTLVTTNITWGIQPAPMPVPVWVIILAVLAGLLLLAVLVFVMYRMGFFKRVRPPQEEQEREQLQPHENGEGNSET
T6 sequence (Q9Z0T9 22-787, chain 2 of 2): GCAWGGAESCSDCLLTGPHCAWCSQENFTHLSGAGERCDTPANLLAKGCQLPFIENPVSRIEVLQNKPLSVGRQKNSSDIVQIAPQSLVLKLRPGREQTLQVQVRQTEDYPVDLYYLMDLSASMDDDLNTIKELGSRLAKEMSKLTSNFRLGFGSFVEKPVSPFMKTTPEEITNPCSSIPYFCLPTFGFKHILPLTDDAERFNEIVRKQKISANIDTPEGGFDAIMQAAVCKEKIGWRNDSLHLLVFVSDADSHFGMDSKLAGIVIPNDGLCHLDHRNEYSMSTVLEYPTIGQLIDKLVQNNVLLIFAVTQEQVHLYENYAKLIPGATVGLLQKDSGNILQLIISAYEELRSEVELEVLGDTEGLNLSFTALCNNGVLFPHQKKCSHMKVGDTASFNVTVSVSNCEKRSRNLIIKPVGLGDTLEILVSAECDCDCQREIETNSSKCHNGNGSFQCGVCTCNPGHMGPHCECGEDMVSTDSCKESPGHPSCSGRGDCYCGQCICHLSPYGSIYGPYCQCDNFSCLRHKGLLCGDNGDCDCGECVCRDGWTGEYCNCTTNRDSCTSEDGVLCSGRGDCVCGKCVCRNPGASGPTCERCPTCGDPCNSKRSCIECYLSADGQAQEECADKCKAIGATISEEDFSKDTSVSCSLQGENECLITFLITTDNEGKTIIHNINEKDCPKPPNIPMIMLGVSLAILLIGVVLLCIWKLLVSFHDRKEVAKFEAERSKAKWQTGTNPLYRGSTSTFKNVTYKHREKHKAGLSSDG
Method: as §1

[7] = target: T7, integrin αvβ5 on the parental line 293F:vector (human, UniProt P06756 31-1048; P18084 24-799); test: FMAT and FACS binding on cells
T7 construct: whole, on cells; Negative control cells; also called HEK293F:vector
T7 sequence (P06756 31-1048, chain 1 of 2): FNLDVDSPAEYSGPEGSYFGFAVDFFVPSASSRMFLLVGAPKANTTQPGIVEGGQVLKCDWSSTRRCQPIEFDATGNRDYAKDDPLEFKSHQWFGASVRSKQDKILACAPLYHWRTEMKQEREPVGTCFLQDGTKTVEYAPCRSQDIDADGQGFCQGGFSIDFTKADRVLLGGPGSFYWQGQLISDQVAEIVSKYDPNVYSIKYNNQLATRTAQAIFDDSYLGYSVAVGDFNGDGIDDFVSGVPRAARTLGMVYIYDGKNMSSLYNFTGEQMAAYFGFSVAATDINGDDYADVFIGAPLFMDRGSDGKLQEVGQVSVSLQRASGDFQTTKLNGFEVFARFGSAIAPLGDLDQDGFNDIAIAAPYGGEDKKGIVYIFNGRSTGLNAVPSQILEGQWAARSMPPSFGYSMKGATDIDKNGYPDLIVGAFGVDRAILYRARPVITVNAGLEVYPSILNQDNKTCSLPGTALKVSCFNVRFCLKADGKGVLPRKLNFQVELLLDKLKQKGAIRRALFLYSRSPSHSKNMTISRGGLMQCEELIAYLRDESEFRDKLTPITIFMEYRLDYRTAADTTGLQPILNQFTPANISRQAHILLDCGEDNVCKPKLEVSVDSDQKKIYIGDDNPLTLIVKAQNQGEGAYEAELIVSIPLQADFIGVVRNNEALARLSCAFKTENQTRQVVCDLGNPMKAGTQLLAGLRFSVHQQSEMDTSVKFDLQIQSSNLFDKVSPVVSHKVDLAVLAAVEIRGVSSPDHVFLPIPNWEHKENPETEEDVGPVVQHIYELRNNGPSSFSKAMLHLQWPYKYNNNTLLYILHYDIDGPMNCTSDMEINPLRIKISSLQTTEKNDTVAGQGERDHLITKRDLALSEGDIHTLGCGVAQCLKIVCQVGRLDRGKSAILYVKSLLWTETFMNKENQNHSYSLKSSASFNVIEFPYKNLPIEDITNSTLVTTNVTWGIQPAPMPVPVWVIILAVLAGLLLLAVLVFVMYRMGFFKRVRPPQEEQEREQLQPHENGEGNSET
T7 sequence (P18084 24-799, chain 2 of 2): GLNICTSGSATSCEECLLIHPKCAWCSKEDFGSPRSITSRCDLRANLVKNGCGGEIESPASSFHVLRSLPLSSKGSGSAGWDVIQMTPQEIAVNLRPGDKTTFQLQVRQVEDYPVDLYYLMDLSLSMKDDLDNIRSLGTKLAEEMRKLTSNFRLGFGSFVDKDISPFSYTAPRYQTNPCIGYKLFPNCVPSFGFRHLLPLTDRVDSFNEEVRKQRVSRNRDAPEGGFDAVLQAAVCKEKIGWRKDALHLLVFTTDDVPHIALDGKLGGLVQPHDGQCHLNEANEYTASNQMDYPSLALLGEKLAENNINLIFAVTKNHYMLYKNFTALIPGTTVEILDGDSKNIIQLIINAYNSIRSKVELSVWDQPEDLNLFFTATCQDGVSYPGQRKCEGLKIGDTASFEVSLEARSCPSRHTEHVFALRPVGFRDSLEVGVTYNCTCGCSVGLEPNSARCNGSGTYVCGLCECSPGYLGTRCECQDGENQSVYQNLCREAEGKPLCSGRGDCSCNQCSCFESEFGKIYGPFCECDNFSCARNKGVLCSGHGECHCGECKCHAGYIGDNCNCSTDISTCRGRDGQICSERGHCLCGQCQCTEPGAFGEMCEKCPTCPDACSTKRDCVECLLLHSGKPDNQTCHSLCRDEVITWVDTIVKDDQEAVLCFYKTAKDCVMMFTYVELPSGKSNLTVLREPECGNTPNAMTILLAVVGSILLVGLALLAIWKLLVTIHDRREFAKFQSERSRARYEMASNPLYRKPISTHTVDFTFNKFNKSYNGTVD

[8] = target: T1, human integrin αvβ6 on cells; test: saturation binding of biotinylated antibody, flow cytometry on 293F:huβ6 cells (apparent Kd)
Method: as §1

[9] = target: T1, human integrin αvβ6 on cells; test: competition binding, flow cytometry on 293F cells expressing αvβ6; competitor 2 nM AlexaFluor-647 m15H3
Method: (§4) 1×10⁵ antigen expressing cells were aliquoted in each well of a 96-well v-bottom plate on ice. […] Cells were pelleted and washed 3 times with PBS. The cells were pelleted and resuspended in 125 uL of PBS/BSA. Fluorescence was analyzed by flow cytometery, using percent of saturated fluorescent signal to determine percent labeled murine 15H3 bound and to subsequently extrapolate the EC50 by fitting the data to a sigmoidal dose-response curve with variable slope.

[10] = target: T1, human integrin αvβ6 on cells; test: competition binding on 293F cells expressing human αvβ6 (FIG. 2)
Method: as §4

T1 sequence (P06756 31-1048, chain 1 of 2): as the sequence (P06756 31-1048, chain 1 of 2) above
T1 sequence (P18564 22-788, chain 2 of 2): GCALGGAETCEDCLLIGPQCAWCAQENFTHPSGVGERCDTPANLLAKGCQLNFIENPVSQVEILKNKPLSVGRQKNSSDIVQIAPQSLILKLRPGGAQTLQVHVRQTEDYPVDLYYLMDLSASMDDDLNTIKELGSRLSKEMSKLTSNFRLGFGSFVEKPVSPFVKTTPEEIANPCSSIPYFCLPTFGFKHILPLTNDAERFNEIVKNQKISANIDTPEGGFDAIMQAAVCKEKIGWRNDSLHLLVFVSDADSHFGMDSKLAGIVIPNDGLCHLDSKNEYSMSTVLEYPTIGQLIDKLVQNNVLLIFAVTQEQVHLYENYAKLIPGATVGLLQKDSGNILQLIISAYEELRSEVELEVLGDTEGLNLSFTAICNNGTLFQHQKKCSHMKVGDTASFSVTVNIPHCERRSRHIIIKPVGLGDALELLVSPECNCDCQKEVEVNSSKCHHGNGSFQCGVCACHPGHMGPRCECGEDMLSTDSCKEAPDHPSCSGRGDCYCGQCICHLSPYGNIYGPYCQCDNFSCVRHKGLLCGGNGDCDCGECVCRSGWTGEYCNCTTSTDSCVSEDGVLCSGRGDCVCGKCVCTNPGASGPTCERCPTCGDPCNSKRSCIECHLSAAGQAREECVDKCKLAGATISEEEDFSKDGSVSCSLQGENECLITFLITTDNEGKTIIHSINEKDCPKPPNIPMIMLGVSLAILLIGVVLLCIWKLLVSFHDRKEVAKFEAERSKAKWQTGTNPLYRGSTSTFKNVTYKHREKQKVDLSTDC

B1: murine 15H3 antibody conjugated with vcMMAE (antibody, V domains shown)
VH: EVQLQQSGPELVKPGASVKISCKASGYSFSGYFMNWVKQSHGQSLEWIGLINPYNGDSFYNQKFKGKATLTVQKSSSTAHMELQSLTSEDSAVFYCVRGLRRDFDYWGQGTPLTVSS
VL: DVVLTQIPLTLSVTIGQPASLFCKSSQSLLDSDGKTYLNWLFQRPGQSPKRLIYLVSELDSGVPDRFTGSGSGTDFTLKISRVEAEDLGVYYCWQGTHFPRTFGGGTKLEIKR
modifications: vcMMAE drug-linker conjugated to the antibody (site and loading not stated for the murine ADC)
IC50 (ng/ml), cytotoxicity assay on 5637 cells (36 x10^3 αvβ6 copies/cell) [1]: > 1000 ng/mL
IC50 (ng/ml), cytotoxicity assay on BxPC3 cells (37 x10^3 αvβ6 copies/cell) [1]: 34 ng/mL
IC50 (ng/ml), cytotoxicity assay on Capan-1 cells (19 x10^3 αvβ6 copies/cell) [1]: 365 ng/mL
IC50 (ng/ml), cytotoxicity assay on HPAFII cells (22 x10^3 αvβ6 copies/cell) [1]: 76 ng/mL
IC50 (ng/ml), cytotoxicity assay on HupT4 cells (184 x10^3 αvβ6 copies/cell) [1]: 35 ng/mL
IC50 (ng/ml), cytotoxicity assay on Panc08.13 cells (137 x10^3 αvβ6 copies/cell) [1]: 93 ng/mL
IC50 (ng/ml), cytotoxicity assay on RT4 cells (42 x10^3 αvβ6 copies/cell) [1]: > 1000 ng/mL
IC50 (ng/ml), cytotoxicity assay on SW780 cells (80 x10^3 αvβ6 copies/cell) [1]: 614 ng/mL

Kd [2]: 0.2 nM
Kd [3]: 1 nM
binding result [4]: no binding (tested: 4.6 ng/ml-10 ug/ml)
binding result [5]: no binding (tested: 4.6 ng/ml-10 ug/ml)
Kd [6]: 0.2 nM
binding result [7]: no binding
Kd [8]: 0.8 nM
B2: murine 15H3 monoclonal antibody (antibody, V domains shown)
VH: B1 VH
VL: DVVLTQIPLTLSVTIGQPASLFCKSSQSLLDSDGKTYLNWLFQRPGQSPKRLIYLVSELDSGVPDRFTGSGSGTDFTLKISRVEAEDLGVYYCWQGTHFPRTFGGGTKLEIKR
notes: Murine hybridoma antibody; also called m15H3; mouse 15H3

B3: murine 15H3 antibody conjugated with mcMMAF (antibody, V domains shown)
VH: B1 VH
VL: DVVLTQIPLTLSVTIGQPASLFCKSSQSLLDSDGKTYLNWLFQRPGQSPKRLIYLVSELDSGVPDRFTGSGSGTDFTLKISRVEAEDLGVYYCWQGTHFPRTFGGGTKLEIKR
modifications: mcMMAF drug-linker conjugated to the antibody (site and loading not stated for the murine ADC)
IC50 (ng/ml), cytotoxicity assay on 5637 cells (36 x10^3 αvβ6 copies/cell) [1]: > 1000 ng/mL
IC50 (ng/ml), cytotoxicity assay on BxPC3 cells (37 x10^3 αvβ6 copies/cell) [1]: 7 ng/mL
IC50 (ng/ml), cytotoxicity assay on Capan-1 cells (19 x10^3 αvβ6 copies/cell) [1]: 1510 ng/mL
IC50 (ng/ml), cytotoxicity assay on HPAFII cells (22 x10^3 αvβ6 copies/cell) [1]: > 2000 ng/mL
IC50 (ng/ml), cytotoxicity assay on HupT4 cells (184 x10^3 αvβ6 copies/cell) [1]: 16 ng/mL
IC50 (ng/ml), cytotoxicity assay on Panc08.13 cells (137 x10^3 αvβ6 copies/cell) [1]: 1400 ng/mL
IC50 (ng/ml), cytotoxicity assay on RT4 cells (42 x10^3 αvβ6 copies/cell) [1]: > 1000 ng/mL
IC50 (ng/ml), cytotoxicity assay on SW780 cells (80 x10^3 αvβ6 copies/cell) [1]: 86 ng/mL

Kd [3]: 1.6 nM
Kd [6]: 0.6 nM
EC50 [9]: 8.14 nM
Kd [8]: 1.4 nM
B4: humanized 15H3 antibody HBLC (antibody, V domains shown)
VH: QVQLVQSGAEVKKPGASVKVSCKASGYSFSGYFMNWVRQAPGQGLEWMGLINPYNGDSFYNQKFKGRVTMTRDTSTSTVYMELSSLRSEDTAVYYCARGLRRDFDYWGQGTLVTVSS
VL: DVVMTQSPLSLPVTLGQPASISCKSSQSLLDSDGKTYLNWLFQRPGQSPRRLIYLVSELDSGVPDRFSGSGSGTDFTLKISRVEAEDVGVYYCWQGTHFPRTFGGGTKLEIKR
notes: Only variable regions are tied to the construct; also called h15H3 (HBLC); h15H3-1

EC50 [9]: 23.9 nM
B5: humanized 15H3 antibody HRLG (antibody, V domains shown)
VH: B4 VH with T76S, V79A
VL: B4 VL with M4L

binding result [10]: binds
B6: humanized 15H3 antibody HBLE (antibody, V domains shown)
VH: B4 VH
VL: B4 VL with L41F, F42Q, S68T
notes: HB heavy chain with LE light chain of the first humanization round

binding result [10]: binds
B7: humanized 15H3 antibody HBLA (antibody, V domains shown)
VH: B4 VH
VL: B4 VL with L41F, F42Q
notes: HB heavy chain with LA light chain of the first humanization round

EC50 [9]: 32.5 nM
B8: humanized 15H3 antibody HSLC (antibody, V domains shown)
VH: B4 VH with D73Q, T76S, V79A
VL: B4 VL

EC50 [9]: 0.93 nM
B9: humanized 15H3 antibody HULC (antibody, V domains shown)
VH: B4 VH with D73Q, T74K, T76S, V79A, A97V
VL: B4 VL

EC50 [9]: 26.7 nM
B10: humanized 15H3 antibody HRLC (antibody, V domains shown)
VH: B4 VH with T76S, V79A
VL: B4 VL

binding result [10]: binds
B11: humanized 15H3 antibody HBLD (antibody, V domains shown)
VH: B4 VH
VL: B4 VL with L41F, F42Q, R50K
notes: HB heavy chain with LD light chain of the first humanization round

EC50 [9]: 11.1 nM
B12: humanized 15H3 antibody HNLC (antibody, V domains shown)
VH: B4 VH with D73Q
VL: B4 VL

binding result [10]: binds
B13: humanized 15H3 antibody HBLF (antibody, V domains shown)
VH: B4 VH
VL: B4 VL with I21L, S22F, R50K, S68T
notes: HB heavy chain with LF light chain of the first humanization round

EC50 [9]: 1.07 nM
B14: humanized 15H3 antibody HMLG (antibody, V domains shown)
VH: B4 VH with D73Q, T74K, T76S, V79A
VL: B4 VL with M4L

EC50 [9]: 0.74 nM
B15: humanized 15H3 antibody HLLC (antibody, V domains shown)
VH: B4 VH with T74K, T76S, V79A
VL: B4 VL
notes: also called h15H3-2

Kd [2]: 0.4 nM
Kd [3]: 1.5 nM
Kd [6]: 0.3 nM
EC50 [9]: 3.7 nM
Kd [8]: 1.2 nM
B16: humanized 15H3 antibody HTLC (antibody, V domains shown)
VH: B4 VH with D73Q, A97V
VL: B4 VL
notes: Only variable regions are tied to the construct; also called h15H3 (HTLC); h15H3-3

binding result [10]: binds
B17: humanized 15H3 antibody HBLB (antibody, V domains shown)
VH: B4 VH
VL: B4 VL with I21L, S22F, L41F, F42Q
notes: HB heavy chain with LB light chain of the first humanization round

EC50 [9]: 0.49 nM
B18: humanized 15H3 antibody HMLC (antibody, V domains shown)
VH: B4 VH with D73Q, T74K, T76S, V79A
VL: B4 VL

EC50 [9]: 0.97 nM
B19: humanized 15H3 antibody HLLG (antibody, V domains shown)
VH: B4 VH with T74K, T76S, V79A
VL: B4 VL with M4L

EC50 [9]: 3.16 nM
B20: humanized 15H3 antibody HNLG (antibody, V domains shown)
VH: B4 VH with D73Q
VL: B4 VL with M4L
